Results taken from patent publication US20050208041A1 (Bristol-Myers Squibb, published 2005).

T1: purified recombinant IFNAR-1 extracellular fragment (human, UniProt P17181 28-436)
T1 construct: extracellular domain; also called soluble IFNAR-1; soluble IFNAR
T1 sequence (looked up): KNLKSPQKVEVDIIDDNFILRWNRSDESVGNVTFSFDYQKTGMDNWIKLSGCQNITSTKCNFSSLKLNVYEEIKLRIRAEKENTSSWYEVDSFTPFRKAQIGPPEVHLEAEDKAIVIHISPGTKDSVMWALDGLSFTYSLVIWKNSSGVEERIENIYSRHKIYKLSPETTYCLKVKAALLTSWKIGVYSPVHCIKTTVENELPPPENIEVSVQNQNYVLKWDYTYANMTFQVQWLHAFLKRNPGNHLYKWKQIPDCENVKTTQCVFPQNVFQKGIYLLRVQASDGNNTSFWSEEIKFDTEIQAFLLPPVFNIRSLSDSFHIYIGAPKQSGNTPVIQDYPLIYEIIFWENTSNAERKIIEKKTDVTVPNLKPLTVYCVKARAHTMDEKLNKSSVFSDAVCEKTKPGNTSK


How the values were obtained:
[1] = target: T1, purified recombinant IFNAR-1 …; experiment: Biacore, antibody on immobilized soluble IFNAR-1, maximal response, mean of four
Description: Additional combination variants heavy chain DI M3-B and light chain DI K1-C were also made. These combination variants were also tested for binding to IFNAR-1. […] Binding analysis was done by Biacore, with the antibody bound to immobilized soluble IFNAR-1. Maximal response was determined at two concentrations and values shown are mean of four determinations.

[2] = target: T1, purified recombinant IFNAR-1 …; experiment: Biacore, response on IFNAR-1 (flow cell 2) divided by response on anti-human IgG Fc (flow cell 4)
Excerpt: A series of antibodies were constructed with reduced numbers of potential T-cell epitopes. These included heavy chain variants M3-A and M3-B in which residues were changed in CDR regions and DI M3 in which framework residues were altered. De-immunized light chains were also constructed termed K1-C, K1-D, K1-E and DI K1. The antibodies were expressed and purified before analysis by Biacore. A Biacore chip was used with IFNAR-1 coated on Flow cell 2 at 690 RU and anti-human IgG Fc on flow cell 4 at 5000 RU. Binding of the antibody to IFNAR-1 relative to anti-human IgG Fc was determined by the ratio of response at flow cell 2 divided by flow cell 4 (Fc2/Fc4).

[3] = target: T1, purified recombinant IFNAR-1 …; experiment: Biacore, maximal association on IFNAR-1 relative to M3K1
Excerpt: Pools 4 and 11 were selected for further study and the individual antibodies in each pool were produced and expressed separately. The sequences of these individual antibodies were as shown in SEQ ID NO:12 of FIG. 1F and SEQ ID NO: 13 of FIG. 1G. The data is presented as maximal association relative to M3K1. […]

| Binder | % response relative to H3K1 [1] | % activity relative to M3K1 [3] | further results |
| --- | --- | --- | --- |
| M3-11 (X = W) heavy chain with K1 light chain (antibody, V domains shown, Position counted within VH CDR3; also called M3-11 W) VH: EVQLLESGGGLVQPGGSLRLSCAFSGFTLSTSGMGIGWVRQAPGKGLEWVAHIWWDDDKYYNPSLKSRFTISRDTSKNTVYLQMNSLRAEDTAVYYCARNYYPYDAWFDWWGQGTLVTVS VL: DIQMTQSPSSLSASVGDRVTITCSASSSINSNHLHWYQQKPGKAPKLLIYRTSILASGVPSRFSGSGSGTSFTLTISSLQPEDFATYYCQQGSNIPFTFGQGTKVEIK | – | 70% | – |
| M3-11 (X = K) heavy chain with K1 light chain (antibody, V domains shown, Position counted within VH CDR3; also called M3-11 K) VH: EVQLLESGGGLVQPGGSLRLSCAFSGFTLSTSGMGIGWVRQAPGKGLEWVAHIWWDDDKYYNPSLKSRFTISRDTSKNTVYLQMNSLRAEDTAVYYCARNYYPYDAWFDKWGQGTLVTVS VL: DIQMTQSPSSLSASVGDRVTITCSASSSINSNHLHWYQQKPGKAPKLLIYRTSILASGVPSRFSGSGSGTSFTLTISSLQPEDFATYYCQQGSNIPFTFGQGTKVEIK | – | 82% | – |
| M3-11 (X = L) heavy chain with K1 light chain (antibody, V domains shown, the position is counted within CDR3, not on the entry; also called M3-11 L) VH: EVQLLESGGGLVQPGGSLRLSCAFSGFTLSTSGMGIGWVRQAPGKGLEWVAHIWWDDDKYYNPSLKSRFTISRDTSKNTVYLQMNSLRAEDTAVYYCARNYYPYDAWFDLWGQGTLVTVS VL: DIQMTQSPSSLSASVGDRVTITCSASSSINSNHLHWYQQKPGKAPKLLIYRTSILASGVPSRFSGSGSGTSFTLTISSLQPEDFATYYCQQGSNIPFTFGQGTKVEIK | – | 75% | – |
| M3-B heavy chain with DI K1 light chain (antibody, V domains shown, also called M3-B DI K1) VH: EVQLLESGGGLVQPGGSLRLSCAFSGFTLSTSGMGIGWVRQAPGKGLEWVAHIWWDDDKYYNPSLKARFTISRDTSKNTVYLQMNSLRAEDTAVYYCARNYYPYDAWFDYWGQGTLVTVS VL: DIQMTQSPSSLSASVGDRATITCSASSSINSNHLHWYLQKPGKAPKALIYRTSILASGIPSRFSGSGSGTDFTLTISSLQPEDTATYYCQQGSNIPFTFGQGTKVEIKR | 17% | – | – |
| M3 heavy chain with DI K1-C light chain (antibody, V domains shown, also called M3 DI K1-C) VH: EVQLLESGGGLVQPGGSLRLSCAFSGFTLSTSGMGIGWVRQAPGKGLEWVAHIWWDDDKYYNPSLKSRFTISRDTSKNTVYLQMNSLRAEDTAVYYCARNYYPYDAWFDYWGQGTLVTVS VL: DIQMTQSPSSLSASVGDRVTITCSASTSINSNHLHWYLQKPGKAPKALIYRTSILASGIPSRFSGSGSGTDFTLTISSLQPEDTATYYCQQGSNIPFTFGQGTKVEIKR | 17% | – | – |
| M3-11 (X = Q) heavy chain with K1 light chain (antibody, V domains shown, Position counted within VH CDR3; also called M3-11 Q) VH: EVQLLESGGGLVQPGGSLRLSCAFSGFTLSTSGMGIGWVRQAPGKGLEWVAHIWWDDDKYYNPSLKSRFTISRDTSKNTVYLQMNSLRAEDTAVYYCARNYYPYDAWFDQWGQGTLVTVS VL: DIQMTQSPSSLSASVGDRVTITCSASSSINSNHLHWYQQKPGKAPKLLIYRTSILASGVPSRFSGSGSGTSFTLTISSLQPEDFATYYCQQGSNIPFTFGQGTKVEIK | – | 73% | – |
| DI M3 heavy chain with DI K1-C light chain (antibody, V domains shown, also called DI M3 DI K1-C) VH: EVQLLESGGGLVQPGGSLRLSCAASGFTMSTSGMGIGWIRQTPGKGLEWVAHIWWDDDKYYNPSLKSRFTISKDTSKNTLYLQMNSLRAEDTAVYYCARNYYPYDAWFDYWGQGTLVTVS VL: DIQMTQSPSSLSASVGDRVTITCSASTSINSNHLHWYLQKPGKAPKALIYRTSILASGIPSRFSGSGSGTDFTLTISSLQPEDTATYYCQQGSNIPFTFGQGTKVEIKR | 4% | – | – |
| M3-B heavy chain with DI K1-C light chain (antibody, V domains shown, also called M3-B DI K1-C) VH: EVQLLESGGGLVQPGGSLRLSCAFSGFTLSTSGMGIGWVRQAPGKGLEWVAHIWWDDDKYYNPSLKARFTISRDTSKNTVYLQMNSLRAEDTAVYYCARNYYPYDAWFDYWGQGTLVTVS VL: DIQMTQSPSSLSASVGDRVTITCSASTSINSNHLHWYLQKPGKAPKALIYRTSILASGIPSRFSGSGSGTDFTLTISSLQPEDTATYYCQQGSNIPFTFGQGTKVEIKR | 14% | – | – |
| M3-11 (X = T) heavy chain with K1 light chain (antibody, V domains shown, Position counted within VH CDR3; also called M3-11 T) VH: EVQLLESGGGLVQPGGSLRLSCAFSGFTLSTSGMGIGWVRQAPGKGLEWVAHIWWDDDKYYNPSLKSRFTISRDTSKNTVYLQMNSLRAEDTAVYYCARNYYPYDAWFDTWGQGTLVTVS VL: DIQMTQSPSSLSASVGDRVTITCSASSSINSNHLHWYQQKPGKAPKLLIYRTSILASGVPSRFSGSGSGTSFTLTISSLQPEDFATYYCQQGSNIPFTFGQGTKVEIK | – | 82% | – |
| M3-11 (X = V) heavy chain with K1 light chain (antibody, V domains shown, Position counted within VH CDR3; also called M3-11 V) VH: EVQLLESGGGLVQPGGSLRLSCAFSGFTLSTSGMGIGWVRQAPGKGLEWVAHIWWDDDKYYNPSLKSRFTISRDTSKNTVYLQMNSLRAEDTAVYYCARNYYPYDAWFDVWGQGTLVTVS VL: DIQMTQSPSSLSASVGDRVTITCSASSSINSNHLHWYQQKPGKAPKLLIYRTSILASGVPSRFSGSGSGTSFTLTISSLQPEDFATYYCQQGSNIPFTFGQGTKVEIK | – | 108% | – |
| M3-11 (X = R) heavy chain with K1 light chain (antibody, V domains shown, Position counted within VH CDR3; also called M3-11 R) VH: EVQLLESGGGLVQPGGSLRLSCAFSGFTLSTSGMGIGWVRQAPGKGLEWVAHIWWDDDKYYNPSLKSRFTISRDTSKNTVYLQMNSLRAEDTAVYYCARNYYPYDAWFDRWGQGTLVTVS VL: DIQMTQSPSSLSASVGDRVTITCSASSSINSNHLHWYQQKPGKAPKLLIYRTSILASGVPSRFSGSGSGTSFTLTISSLQPEDFATYYCQQGSNIPFTFGQGTKVEIK | – | 220% | – |
| M3-11 (X = S) heavy chain with K1 light chain (antibody, V domains shown, Position counted within VH CDR3; also called M3-11 S) VH: EVQLLESGGGLVQPGGSLRLSCAFSGFTLSTSGMGIGWVRQAPGKGLEWVAHIWWDDDKYYNPSLKSRFTISRDTSKNTVYLQMNSLRAEDTAVYYCARNYYPYDAWFDSWGQGTLVTVS VL: DIQMTQSPSSLSASVGDRVTITCSASSSINSNHLHWYQQKPGKAPKLLIYRTSILASGVPSRFSGSGSGTSFTLTISSLQPEDFATYYCQQGSNIPFTFGQGTKVEIK | – | 39% | – |

More lines, main results first:

| % response relative to H3K1 [1] | % activity relative to M3K1 [3] | Binder | further results |
| --- | --- | --- | --- |
| 149% | – | DI M3 heavy chain with K1 light chain (antibody, human IgG4, V domains shown, also called DI M3 K1) VH: EVQLLESGGGLVQPGGSLRLSCAASGFTMSTSGMGIGWIRQTPGKGLEWVAHIWWDDDKYYNPSLKSRFTISKDTSKNTLYLQMNSLRAEDTAVYYCARNYYPYDAWFDYWGQGTLVTVS VL: DIQMTQSPSSLSASVGDRVTITCSASSSINSNHLHWYQQKPGKAPKLLIYRTSILASGVPSRFSGSGSGTSFTLTISSLQPEDFATYYCQQGSNIPFTFGQGTKVEIKR | % activity relative to H3K1 [2]: 137%; Fc2/Fc4 [2]: 0.41 |
| 9% | – | DI M3-B heavy chain with DI K1-C light chain (antibody, V domains shown, also called DI M3-B DI K1-C) VH: EVQLLESGGGLVQPGGSLRLSCAASGFTMSTSGMGIGWIRQTPGKGLEWVAHIWWDDDKYYNPSLKARFTISRDTSKNTLYLQMNSLRAEDTAVYYCARNYYPYDAWFDYWGQGTLVTVS VL: DIQMTQSPSSLSASVGDRVTITCSASTSINSNHLHWYLQKPGKAPKALIYRTSILASGIPSRFSGSGSGTDFTLTISSLQPEDTATYYCQQGSNIPFTFGQGTKVEIKR | – |
| 122% | – | DI M3-B heavy chain with K1 light chain (antibody, V domains shown, also called DI M3-B K1) VH: EVQLLESGGGLVQPGGSLRLSCAASGFTMSTSGMGIGWIRQTPGKGLEWVAHIWWDDDKYYNPSLKARFTISRDTSKNTLYLQMNSLRAEDTAVYYCARNYYPYDAWFDYWGQGTLVTVS VL: DIQMTQSPSSLSASVGDRVTITCSASSSINSNHLHWYQQKPGKAPKLLIYRTSILASGVPSRFSGSGSGTSFTLTISSLQPEDFATYYCQQGSNIPFTFGQGTKVEIKR | – |
| 11% | – | DI M3-B heavy chain with DI K1 light chain (antibody, V domains shown, also called DI M3-B DI K1) VH: EVQLLESGGGLVQPGGSLRLSCAASGFTMSTSGMGIGWIRQTPGKGLEWVAHIWWDDDKYYNPSLKARFTISRDTSKNTLYLQMNSLRAEDTAVYYCARNYYPYDAWFDYWGQGTLVTVS VL: DIQMTQSPSSLSASVGDRATITCSASSSINSNHLHWYLQKPGKAPKALIYRTSILASGIPSRFSGSGSGTDFTLTISSLQPEDTATYYCQQGSNIPFTFGQGTKVEIKR | – |
| 96% | – | DI M3 heavy chain with K1-C light chain (antibody, V domains shown, also called DI M3 K1-C) VH: EVQLLESGGGLVQPGGSLRLSCAASGFTMSTSGMGIGWIRQTPGKGLEWVAHIWWDDDKYYNPSLKSRFTISKDTSKNTLYLQMNSLRAEDTAVYYCARNYYPYDAWFDYWGQGTLVTVS VL: DIQMTQSPSSLSASVGDRVTITCSASTSINSNHLHWYQQKPGKAPKLLIYRTSILASGVPSRFSGSGSGTSFTLTISSLQPEDFATYYCQQGSNIPFTFGQGTKVEIKR | – |
